Values of other authors as cited in PMC3763834.
pKd: −log10 of the molar value. Where “and” joins values, the source holds several entries; their conditions need not be identical. Equal values may be shown once.

Biological target: PKA catalytic subunit (UniProt P17612)

For PKA RII subunit (from UniProt P13861), the pKd is given as 9.00 and 10.00.
